The values that follow come from patent publication US20110097300A1 (SUNNYBROOK HEALTH SCIENCES CENTRE, published 2011).

Where no end group is shown, it is not given here. Maleimide‑PEO2‑Biotin = EZ-link-PEO-maleimide-biotin, biotinylated PEG-maleimide moiety (29 angstrom)

The test concerns the target T1, Tie 2 of EaHy926 endothelial cells (UniProt Q02763 23-1124, limits assumed).
T1 construct: whole, on cells; also called Tek
The experiment in a line: avidin agarose pull down from EaHy926 whole cell lysate, anti-Tie 2 immunoblot. The procedure:
In this example, the ability of Vasculotide to bind the Tie 2 receptor, despite the engineered modifications, was tested using an in vitro pull down assay. In the pull down assay, a cell lysate of EaHy926 endothelial cells (which express high levels of Tie 2) was prepared in Phospho Lipase Cγ lysis buffer (50 mM Hepes buffer pH 7.5, 150 mM NaCl, 10% glycerol, 1% Triton X-100, 1.5 mM MgCl₂, 1.0 mM EGTA, 10 mM NaPPi, […], 2 mM Na₃VO₄, 1× aprotinin, 1× leupeptin and 1× PMSF). The whole cell lysate was mixed with either unclustered biotinylated Vasculotide or biotinylated irrelevant peptide. The biotinylated peptides then were isolated with avidin agarose and subsequently tested for their ability to precipitate Tie 2 via standard immunoblot analysis using anti-Tie 2 antibody.
On the technique in general: A western blot detects proteins with antibodies after separation by electrophoresis.

T1 sequence (Q02763 23-1124 limits assumed): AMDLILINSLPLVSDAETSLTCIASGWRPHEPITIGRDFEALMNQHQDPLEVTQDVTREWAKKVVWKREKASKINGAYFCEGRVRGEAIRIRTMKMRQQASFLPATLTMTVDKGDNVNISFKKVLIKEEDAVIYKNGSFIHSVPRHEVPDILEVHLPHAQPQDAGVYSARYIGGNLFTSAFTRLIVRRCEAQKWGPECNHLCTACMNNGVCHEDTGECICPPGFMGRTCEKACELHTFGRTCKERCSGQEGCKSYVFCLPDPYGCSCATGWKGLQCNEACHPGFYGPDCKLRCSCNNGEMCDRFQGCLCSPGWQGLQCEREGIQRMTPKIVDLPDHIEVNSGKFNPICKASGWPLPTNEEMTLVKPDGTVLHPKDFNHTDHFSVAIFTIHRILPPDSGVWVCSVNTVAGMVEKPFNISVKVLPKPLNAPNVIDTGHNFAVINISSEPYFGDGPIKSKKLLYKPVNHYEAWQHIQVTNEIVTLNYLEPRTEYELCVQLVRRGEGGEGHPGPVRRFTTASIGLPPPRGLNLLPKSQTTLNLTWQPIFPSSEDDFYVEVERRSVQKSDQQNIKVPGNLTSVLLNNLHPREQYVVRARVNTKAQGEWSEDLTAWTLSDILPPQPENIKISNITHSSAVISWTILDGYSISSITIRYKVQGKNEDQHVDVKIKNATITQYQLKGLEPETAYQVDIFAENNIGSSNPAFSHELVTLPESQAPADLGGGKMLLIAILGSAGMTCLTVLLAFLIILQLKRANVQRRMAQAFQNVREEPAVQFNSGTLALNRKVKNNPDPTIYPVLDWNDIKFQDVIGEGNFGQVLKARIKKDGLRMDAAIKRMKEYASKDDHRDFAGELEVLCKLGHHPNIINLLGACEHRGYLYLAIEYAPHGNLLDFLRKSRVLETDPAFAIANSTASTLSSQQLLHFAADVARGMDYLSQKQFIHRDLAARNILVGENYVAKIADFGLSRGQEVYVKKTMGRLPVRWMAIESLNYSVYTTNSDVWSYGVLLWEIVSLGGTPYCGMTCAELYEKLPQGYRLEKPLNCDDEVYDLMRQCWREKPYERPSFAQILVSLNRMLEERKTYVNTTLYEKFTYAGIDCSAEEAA

B1: unclustered Vasculotide (biotinylated T7 peptide-PEG monomer) (peptide)
peptide: C(Maleimide‑PEO2‑Biotin)HHHRHSF-OH
notes: L-amino acids; monomer, not clustered with avidin; also called T7-biotin; non-clustered Vasculotide
For B1, the binding result is recorded as “binds”.
